B1: S626-161 IgG (antibody, V domains shown)
VH: QLQLQESGPGLVKPSEALSLTCTVSGGSISTSNYYWGWIRQPPGKGLEWIGSIYYRGGTHYNPSLKTRVTISVDTSKNQFSLKLSSVTAADTAVYYCARHTYFYDIVGAAVWEPFDIWGQGTMVTVSS
VL: not shown
B2: S728-1157 IgG (antibody, V domains shown)
VH: EVQLVESGGGLVQPGGSLRLSCAASGLLVSRNYMNWVRQAPGKGLEWVSIIYSGGSTFYADSVEGRFTISRDESKNTLYLQMNSLRTDDTAVYYCARDLSDYGGIDCWGQGTLVTVSS
VL: ELTQPLSVSMALGQTARISCGGDNVGSQNVHWYQQRPGQAPVLVIYRDSNRPSGIPERFSGSKSGNTATLTISRAQAGDEADYYCQVWDSSTVAFGGGTKLTVL
B3: S451-1140 IgG (antibody, V domains shown)
VH: EVQLVESGGGLVPPGGSLRLSCAASGFIFSNYAMTWVRQAPGKGLEWVSAISGGGGSTDYADSVKGRFTISRDNSKNTLYLQMNSLRAEDTAVYYCAKDLFGSGWSLFDNWGQGTLVTVSS
VL: not shown
B4: S728-1157 Fab (Fab, V domains shown)
VH: EVQLVESGGGLVQPGGSLRLSCAASGLLVSRNYMNWVRQAPGKGLEWVSIIYSGGSTFYADSVEGRFTISRDESKNTLYLQMNSLRTDDTAVYYCARDLSDYGGIDCWGQGTLVTVSS
VL: ELTQPLSVSMALGQTARISCGGDNVGSQNVHWYQQRPGQAPVLVIYRDSNRPSGIPERFSGSKSGNTATLTISRAQAGDEADYYCQVWDSSTVAFGGGTKLTVL
B5: S451-1140 Fab (Fab, V domains shown)
VH: EVQLVESGGGLVPPGGSLRLSCAASGFIFSNYAMTWVRQAPGKGLEWVSAISGGGGSTDYADSVKGRFTISRDNSKNTLYLQMNSLRAEDTAVYYCAKDLFGSGWSLFDNWGQGTLVTVSS
VL: not shown
B6: S626-161 Fab (Fab, V domains shown)
VH: QLQLQESGPGLVKPSEALSLTCTVSGGSISTSNYYWGWIRQPPGKGLEWIGSIYYRGGTHYNPSLKTRVTISVDTSKNQFSLKLSSVTAADTAVYYCARHTYFYDIVGAAVWEPFDIWGQGTMVTVSS
VL: not shown

Key:
[1] = biological target: spike BA.1 Omicron-6P (SARS-CoV-2, Omicron BA.1, strain, biotinylated (EZ-Link Sulfo-NHS-Biotin) for BLI); experiment: ELISA
[2] = biological target: T1, spike WT-6P (SARS-CoV-2, wildtype (Wuhan-Hu-1 type), UniProt P0DTC2, stabilised, biotinylated (EZ-Link Sulfo-NHS-Biotin) for BLI); experiment: ELISA
[3] = biological target: T1, spike WT-6P; experiment: BLI

| Binder | fold increase of ELISA binding compared with spike BA.1-2P [1] | binding result [2] | binding result [3] |
| --- | --- | --- | --- |
| B1 | > 3 fold | binds |  |
| B2 | > 3 fold |  | binds |
| B3 | > 3 fold |  | binds |
| B4 |  |  | binds |
| B5 |  |  | binds |
| B6 |  |  | binds |

Reference: publication doi:10.1101/2022.10.31.514592 (bioRxiv, 2022)
